This note sets out measurements from article doi:10.1101/2025.03.23.644798 (bioRxiv, 2025).

The data set concerns the molecule itself. The data set is described as follows: native gel or EMSA.

B1: wild-type D-amino acid oxidase from Schizosaccharomyces pombe (enzyme, UniProt Q9Y7N4 1-348, looked up)
chain: MTKENKPRDIVIVGAGVIGLTTAWILSDLGLAPRIKVIAKYTPEDRSVEYTSPWAGANFCSISATDDNALRWDKITYHRFAYLAKTRPEAGIRFADLRELWEYEPKHDKIRSWNTYVRDFKVIPEKDLPGECIYGHKATTFLINAPHYLNYMYKLLIEAGVEFEKKELSHIKETVEETPEASVVFNCTGLWASKLGGVEDPDVYPTRGHVVLVKAPHVTETRILNGKNSDTYIIPRPLNGGVICGGFMQPGNWDREIHPEDTLDILKRTSALMPELFHGKGPEGAEIIQECVGFRPSRKGGARVELDVVPGTSVPLVHDYGASGTGYQAGYGMALDSVMLALPKIKLA
For B1, the binding result is given as “binds”.
